Laboratory results published in FireProtDB (doi:10.1093/protein/gzt061).

B1: Limonene-1,2-epoxide hydrolase, Q9ZAG3 (parent)
chain: MTSKIEQPRWASKDSAAGAASTPDEKIVLEFMDALTSNDAAKLIEYFAEDTMYQNMPLPPAYGRDAVEQTLAGLFTVMSIDAVETFHIGSSNGLVYTERVDVLRALPTGKSYNLSILGVFQLTEGKITGWRDYFDLREFEEAVDLPLRG

Variants of: B1
Settings: Rhodococcus erythropolis; pH 7.1; Thermal; Fluorescence; Potassium phosphate 50mM; transition: 2; reversible: no; structure 1NWW; whole UniProt chain shown

Variant	Tm	change of melting temperature, mutant - wild type (higher = more stable)
Y96F	51.6 °C	2.8 °C
T76K	50.3 °C	1.5 °C
A48C K126C	53 °C	4.2 °C
Q69R	49.1 °C	0.3 °C
E124D	50.1 °C	1.3 °C
P57C D135C	35 °C	-13.8 °C
A142R	46 °C	-2.8 °C
Y112C A142C	56 °C	7.2 °C
I44C E68C	56 °C	7.2 °C
G89C S91C	66 °C	17.2 °C
L122F	41.3 °C	-7.5 °C
A72R	47 °C	-1.8 °C
T85I	54.6 °C	5.8 °C
L94F	48.8 °C	0 °C
S15P	49 °C	0.2 °C
A20P	46.7 °C	-2.1 °C
D65E	49.3 °C	0.5 °C
K4C A82C	59 °C	10.2 °C
I5C E84C	64 °C	15.2 °C
A16R	48.3 °C	-0.5 °C

Variant	Tm	change of melting temperature, mutant - wild type (higher = more stable)
A17C N92C	64 °C	15.2 °C
Q121V	38.8 °C	-10 °C
A105C V143C	46.5 °C	-2.3 °C
S111R	48.8 °C	0 °C
V102C	62 °C	13.2 °C
E124R	46 °C	-2.8 °C
Y62W	48.8 °C	0 °C
N92R	50.6 °C	1.8 °C
K42R	47.5 °C	-1.3 °C
D33K	47.3 °C	-1.5 °C
T85P	42.8 °C	-6 °C
S111K	46.5 °C	-2.3 °C
A66P	49.6 °C	0.8 °C
M32C V83C	44 °C	-4.8 °C
D33R	46.5 °C	-2.3 °C
I27M	47 °C	-1.8 °C
N92K	56.1 °C	7.3 °C
E45R	47.8 °C	-1 °C
A19K	51.3 °C	2.5 °C
E45K	50.8 °C	2 °C

Variant	Tm	change of melting temperature, mutant - wild type (higher = more stable)
A17C L94C	56 °C	7.2 °C
K110R	47.3 °C	-1.5 °C
G18N	49.1 °C	0.3 °C
D50P	42.8 °C	-6 °C
M52C G129C	40 °C	-8.8 °C
D24R	45 °C	-3.8 °C
A41R	48.8 °C	0 °C
I127F	46.3 °C	-2.5 °C
S12R	49 °C	0.2 °C
E68Q	49.3 °C	0.5 °C
K13P	44.8 °C	-4 °C
L106R	46.5 °C	-2.3 °C
T85L	51.3 °C	2.5 °C
E124K	47.5 °C	-1.3 °C
A41S	49.1 °C	0.3 °C
D24C L122C	36 °C	-12.8 °C
S15K	48.5 °C	-0.3 °C
T85V	55.6 °C	6.8 °C
